Results on 42 variants are retold here after the RNAGym collection of RNA variant scans (doi:10.1073/pnas.2313332121).

Sequences and labels used below:
B1: TPR t1 (parent)
chain: GACCAAUCUGCCCUCAGAGCUCGAGAACAUCUUCGGAUGCAGAGGAGGCAGGCUUCGGUGGCGCGAUAGCGCCAACGUCCUCAACCUCCAAUGCAUCCCACCACAUGAUGAUGCCUGAAGAGCCUUGGUUUUUUG

Variants of B1 are the subject of the series. Put plainly: polymerase ribozyme fitness, log enrichment relative to wild type (log ratio); higher = more active; in vitro selection for triplet polymerase activity. In short, it runs like this:
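Frozen incubation at −7 °C formed the core of a single, triplicate in vitro selection round applied to PCR-built, transcribed mutant libraries of each subunit of a heterodimeric triplet polymerase ribozyme. Extended constructs were gel-excised, captured with streptavidin beads and amplified by RT-PCR, and input and output libraries were Illumina-sequenced with a filter of ≥10 input reads and ≥1 read per output. Fitness is the logarithm of genotype enrichment relative to wild-type enrichment, with inverse-variance-weighted replicate averaging, and the logarithm is base 2.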
Take GACCAAUCAGCCCUCUGAGCUCGCGAACAUCUGCGAAUGCAGAGGAGGCAGGCUUCGGUGGCGCGAUAGCGCCAACGUCCUCAACCUCCAAUGCAUCCCACCACAUGAUGAUGCUUGAAGAGCCUUGGUUUUUUG: the “polymerase ribozyme fitness (log ratio)” value is -7.16.
In the case of GACCAAUCAGCCCUCAGAGCUCGAGAACAUCUUCGGUUGCGGAGGAGGCAGGCUUCGGUGGCGCGAUAGCGCCAACGUCCUCAACCUCCAAUGCAUCCCACCACAUGAUGAUGCCUGAAGAGCCUUGGUUUUUUG, the “polymerase ribozyme fitness (log ratio)” value was determined as 0.164.
In the case of GACCAAUCAGCCCUCAGAGCUCGGGAACAUCUUCGGAUGCAAAGGAGGCAGCCUUCGGUGGCGCGAUAGCGGCAACGUCCUCAACCUCCAAUGCAUCCCACCACAUGAUGAUGCCUGAAGAGCCUUGGUUUUUUG it was -3.17.
Consider GACCAAUCAGCCCUCAGAGCUCGAGAACUUCUUCGCAUGCAGAUGAGGCAGGCUUCGGUGGCGCGAUAGCGACAACGUCCUCAGCCUCCAAUGCAUCCCACCACAUGAUGAUGCCUGAAGAGCCUUGGUUUUUUG, for which the “polymerase ribozyme fitness (log ratio)” value was -3.62.
GACCAAUCAGCCCUCAGUGCUCGAGAACAUCUUCGGAUGCGGAGGAGGCAGGCUUCGGUGGCGCGAUAGCGCCAACGUCCUCAACCUCCAAAGCAUCCCACCACAUGAUGAUGCCUGAAGAGCCUUGGUUUUUUG: the “polymerase ribozyme fitness (log ratio)” value was -2.99.
In the case of GACCAAUUUGCCCUCAGAGCUCGAGAACAUCUUCGGAGGCAGAGGAGGCAAGCUUCGGUGGCGCGAUAGCGCCAACGUCCUCAACCUCCAAUGCAUCCCACCACAUGAUGAUGCCUGAAGAGCCUUGGUUUUUUG it was -3.4; in that of GACCAAUUUGCCCUCAGAGCUCGAGAACAUCUUCGGAUGCAGAGGAGGCAGGCUUCGGUGACGCGAUAGCGCCAACGUCCUCAACCUCCAAUGCAUCCCACCACAUGAUGAUGCCUGAAGAGCCUUGGUUUUUUG, 0.644.
For the variant GACCAAUUUGCCCUCAGAGCUCGAGAACAUCUUCGGAUGCAGAGGAGGCAGGCUUCGGUGGCGCGAUAGCGCCAACGUCCUCAACCUCCAAUGCAUCCCACCACAUGAUGAUGCCUAAUGAGUCUUGGUUUUGUG, the “polymerase ribozyme fitness (log ratio)” value is -1.22.
In the case of GACCAAUCAGCCCUCUGAGCUCGAGAACAUCUUCGGAUGCAGAGGAGGCAGGCUUCGGUGGCUCGAUAGCGCCAACGUCCUCAACCUCCAAUGCAUCCCACCACAUGAUGAUGCCUGAAGAGCCUUGGUUUAUUG it was -1; in that of GACCAAUCAGCCCUCAGGGCUCGAGAACAUCUUCGGAUGCAGAGGAGGCAGGCUUCGGUGGCGCGAUAGCGCCAACGUCCUUAACCUCCAAUGCAUCCCACCACAUGAUGAUGCUUGAAGAGCCUUGGUUUUUUG, -3.35; in that of GACCAAUUUGCCCUCAGAGCUCGAGAACAUCUUCGGAUGCAGAGGAGGCAGGCUUCGGUGGCGCGAUAGCGCCAACGUCCUCAACCUCCAAUGCAUCCCACCACAUGAUGAUGCCUGAAGAGCCUUGGGUUUAUG, -1.94.
In the case of GACCAAUUUGCCCUCAGAGCCCGAGAACAUCUUCGGAUGCAGAGGAGGCAGGCUUCGGUGGCGCGAUAGCGCCAACGUCCUCAACCGCCAAUGCAUCCCACCACAUGAUGAUGCCUGAAGAACCUUGGUUUUUUG it was -0.0757; in that of GACCAAUUUGCCCUCAGAGCUCGAGAACAUCUACGGAUGCAGAGGAGGCAGGCUUCGGUGGCGCGAUAGCGCCAACGUCCUCAACCUCCAAUGCAUCCCACCACAUGAUGAUGCCUGAAGAGCCUUGGUUUUUUG, -3.59; in that of GACCAAUCAGCCCUCAGAGCUCGAGAACAUCUUCGGAUGCAGAGGGGGCAGGCUUCGGUGGCGCGAUAGCGCCAACGUCCUCAAUCUCCAAUGCAUCCCACCACAUGAUGAUGCCUGAAGAGCCAUGGUUUUUUG, -1.94.
GACCAAUUGGCCCUCAGAGCUCGAGAACAUCUUCGGGUGCAGAGGAGGCAGGCUUCGGUGGCGCGAUAGCGCCAACGUCCUCAACCUCCAAUGCAUCCCACCACAUGAUGAUGCCUCAAGAGCCUUGGUUUUUUG: the “polymerase ribozyme fitness (log ratio)” value is -0.0473.
Regarding GACCAAUUCGCCCUCAGAGCUCGAGAACAUCUUCGGAUGCAGAGGAGGCAGGCUUCGGUGGCGCGAUAGCGCCAACGUCCUCAACCUCCAAUGCAUCCCACCACAUGAUGAUGCCUGAUGAGCCUUGGUUUUUUG, the “polymerase ribozyme fitness (log ratio)” value turned out to be 0.976.
For GACCAAUUUGCCCUCAGAGCUCGAGAACAUCUUCGGAUGCAGAGGAGGCAGGCUUCGGUGGCGCGAUAGCGCCAACGUCCUCAACCUCCAAUGCAGCCCACCACAUGAUUAUGCCUGAAGAGCCUUGGUUUUUUG, the “polymerase ribozyme fitness (log ratio)” value is -2.02.
In the case of GACCAAUUUGCCCUCAGAGCUCGAGAACAUCUUCGGAUGCAGAGGAGGCAGGCUUCGGUGGCGCGAUAGCGCCAACGUCCUCAACCUCCAAUCCAUCCCACCACAUGAUGAUGCCUGAAGAGCCUUGGUUUUUUG it was 0.0241; in that of GACCAAUUUGCCCUCAGAGCUCGAGAACAUCUUCGGAUGCAGAGGAGGCAGGCUUCGGUGGCGCGAUAGCGCCAACGUCCUCAACCUCCAAUCCAUCCCACCACAUGAUGAUGUCUGAAGAGCCUUGGUUUUUUG, -1.54; in that of GACCAAUCAGCCCUCAGAGCUCGAGAUAAUCUUCGGAUGCAGAGGAGGCAGGCUUCGGUGGCGCGAUAGCGCCAACGCCCUCAACCUCCAAUGCAACCCACCACAAGAUGAUGCCUAAAGAGCCUUGGUUUUUUG, -4.8.
Regarding GACCAAUUGGCCCUCAGAGCUCGAGAACAUCUUCGGAUGCAGAGGAGGCAGGCUUCGGCGGCGCGAUAGCGUCAACGUCCUCAACCUCCAAUGCAUCCCACCACAUGAUGAUGCCUGAAGAGCCUUGGUUUUUUG, the “polymerase ribozyme fitness (log ratio)” value worked out at 0.524.
For GACCAAUUAGCCCUCAGUGCUCGAGAACAUCUUCGGAUGCAGAGGAGGCAGGCUUCGGUGGCGCGAUAGCGCCAAGGUCCUCAACCUCCAAUGCAUCCCACCACAUGAUGAUGCCUGAAGAGCCUUGGUUUUUUG, the “polymerase ribozyme fitness (log ratio)” value was -1.89.
Regarding GACCAAUCAGCCCUCAGAGCUCGCGAACAUCUUCGGAUGCAGAGGAGGCAGGCUUCGGCGGCGCGAUAGCGCCAACGUCCUCAACCUCCAUUGCAUCCCACCACAUGAUGCUGCCUGAAGAGCCUUGGUUUUUUG, the “polymerase ribozyme fitness (log ratio)” value is -6.66.
In the case of GACCAAUCAGCCCUCAGAGCUCGAGAACAUCUUCGGUUGCAGAGGAGGCAGGCUUCGGUGGCGCGAUAGCGCCAACGUCCUCAACCUCCAAUGCAUCCCACCACAUGAUGAUGCCUGAAGAGCCUUGGUUUUUUG it was 0.568; in that of GACCAAUUUGCCCUCAGAGCACGAGAACACCUUCGGAUGCAGAGGAGGCAGGCUUUGGUGGCGCGAUAGCGCCAACGUCCUCAACCUCCAAUGCAUCCCACCACAUGAUGAUGCCUGAAGAGCCUUGGUUUUUUG, -3.2.
Regarding GACCAAUCAGCCCUCAGAGCUCGAGAACAUCUUCGGAUGCAGAGGUGGCAGGCUUCGGUGGCCCGAUAGCGCCAACGUCCUGAACAUCCAAUGCAUCCCACCACAUGAUGAUGCCUGAAGAGCCUUGGUUUUUUG, the “polymerase ribozyme fitness (log ratio)” value is -1.25.
Turning to GACCAAUUUGCCCUCAGAGCUCGAGAACACCUUCGGAUGCAGAGGAGGUAGGCUUCGGUGGCGCGAUAGCGCCAACGUCCUCAACCUCCAAUGCAUCCCACCACAUGAUGAUGCCUGAAGAGCGUUGGUUUUGUG, the “polymerase ribozyme fitness (log ratio)” value was -3.25.
Turning to GACCAAUCAGCCCUCAGAGCUCGAGAACAUCUUCGGAUGCAGUGGAGGCAGGCUUCGGUGGCGCGAUAGUGCCAACGUCCUAAACCCCCAAUGCAUCCCACCACAUGAUGAUGCCUGAAGAGCCUUGGUUAUUUG, the “polymerase ribozyme fitness (log ratio)” value is -1.6.
In the case of GACCAAUUUGCCCUCAGAGCUCGAGAACAUCUUCGGAUGCAGAGGAGGCAGGCUUCGGUGGCACGAUAGCGCCAACGUCCUCAACCUCCAAUGCAUCCCACAACACGAUGAUACCUGAAGAGCCUUGGUGUUUUG it was -5.25; in that of GACCAAUUUGCCCCCAGAGCUCGAGAACAUCUUCGGAUGCAGAGGAGGCAGGCUUCGGUGGCGCGAUAGCGCCAACGCCCUCAACCUCCAAUGCAUCCCACCACAAGAUGAUGCCUGAAAAGCCUUGGUUUUUUG, 1.87.
In the case of GACCAAUUUGCCCUCAGAGCUCGAGAACAUCGUCGGAUGCAGAGGAGGCAGGCUUCGGUGGCGCGAUAGCGCCAACGUCCUCAACCUCCAAUGCAUCCCAACACAUGAUGAUGCGUGAAGAGCCUUGGUUUUUUG it was -5.52.
As to GACCAAUCAGCCCUCAGAGCUCGAGUACAUCUUCGGAUGGAGAGGAGGCAGGCUUCGCUGGCGCGAUAGCGCCAACGUCCUCAACCUCCAAUGCAUCCCACCACAUGAUGAUGCCUGAAGAGCCGUGGUUUUUUG, the “polymerase ribozyme fitness (log ratio)” value was -4.12.
In the case of GACCAAUUUGCCCUCAGAGCUCGAGAACAUCUUCGGAUGCAGAGGAGGCAGGCUUCGGUGGCGCGAUAGCGCCAACGUCCUCAACCUCCAAUGCAUCCCACCACAUGAUGAUGCCUGAAUAGCCUUGGUUUUUUG it was 1.14; in that of GACCAAUUUGCCCUCAGAGCUCGAGAACAUCUUCGGAUGCAGAGGAGGCAGGCUUCGGUCCCGCGAUAGCGACAACGUCCUCAACCUCCAAUGCAUCCCAUCACAUGAUGAUGCCUGAAGAGCCUUGGUUUUUUG, -1.33; in that of GACCAAUUUGCCCUCAGAGCUCGAGAACAUCUUCGGAUGCAGAGGAGGCAGGCUUCGGUGGCGCGAUAGCGCCAACGUCCUCAACCUCCAAAGCAUCCCACCACAUGAUGAUGCCUGAAGAGCCUUGGUUUUUUG, -2.72.
GACCAAUCAGCCCUCCGAGCUCGAGAACAUCUUCGGAUGCAGAGGAGGUAGGCUUCGGUGGCGCGGUAGCGCCAACGUCCUCAACCUCCAAUGCAUCCCAGCACAUGAUGAUGCCUGAAGAGACUUGGUUUUUUG: the “polymerase ribozyme fitness (log ratio)” value is -4.86.
Take GACCAAUUUGCCCUCAGAGCCCGAGAACAUCUUCGGAUGCAGAGGAGGCAGGCUUCGGUGGCGCGAUAGCGCCAACGUCCUCAACCUCCAAUGCAUCCCACCACAUGAUGAUGCCUGAAGAACCUUGGUUUUUUG: the “polymerase ribozyme fitness (log ratio)” value was -0.0897.
In the case of GACCAAUCAGCCCUCAGAGCUCGAGAACUUCUUCGGAUGCUGAGGAGGCAGGCUUCGGUAGCGCGAUAGCGCCAACGCCCUCAACCUCCAAUUCAUCCCACCACAUGAUGAUGCCUGAGGAGCCUUGGUUUUUUG, the “polymerase ribozyme fitness (log ratio)” value is -2.57.
As for GACCAAUUUGCCCUCAGAGCUCGAGAACAUCUUCGGAUGCAGAGGAGGCAGGCUUCGGUGGCGCGAUAGCGCCAACGUCCUCAACCUCCAAUGCAUCCCACCACAUGAUGAUGCCUUAAGAGCCUCGGUUUUUUG, the “polymerase ribozyme fitness (log ratio)” value is -3.25.
As to GACCAAUUAGACAUCAGAGCUCGAGAACAUCUUCGGAUGCAGAUGAGGCAGGCUUCGGUGGCGCGAUAGCGCAAACGUCCUCAACCUCCAAUGCAUCCCUCUACAUGAUGAUGCCUGAAGAGCCUUGGUUUUUUG, the “polymerase ribozyme fitness (log ratio)” value is -4.18.
GACCAAUUUGCCCUCAGAGCUCGAGAACAUCUUCGGAUGCAGAGGAGGCAGGCUUCGGUGGCGCGAUAGCACCAACGUCCUCAACCUCCAAUGCAUCCCACCACAUGAUGAUGCCUGAAGAGCCUUGGUUUUUUG: the “polymerase ribozyme fitness (log ratio)” value is -0.229.
In the case of GACCAAUUUGCCCACAGAGCUCGAGAACAUCUUCGGAUGCAGAGGAGGCAGGCUUCGGUGACGCGAUAGCGCCAACGUCCUCAACCUCCAAUGCAUCCCACCACAUGAUGAUGCCUGAAGAGCCUUGGUUUUUUG it was -0.345.
